# Data taken from US7588893.
# How the values were obtained:
# [1] = biological target: poly-GT oligonucleotide tagged anti-TSH mouse monoclonal IgG; test: fluorescent microspheres on the poly-CA microspot carrying Poly-GT-Mouse IgG, confocal laser scanning, ex 488 / em 525
# [2] = biological target: poly-CT oligonucleotide tagged rabbit IgG; test: fluorescent microspheres on the poly-GA microspot carrying Poly-CT-Rabbit IgG, confocal laser scanning, ex 488 / em 525; control 13.3 ± 0.5
# [3] = biological target: poly-GT oligonucleotide tagged anti-TSH mouse monoclonal IgG; test: fluorescent microspheres on the poly-CA microspot carrying Poly-GT-Mouse IgG, confocal laser scanning, ex 568 / em 585; control 22.0 ± 0.2
# [4] = biological target: poly-CT oligonucleotide tagged rabbit IgG; test: fluorescent microspheres on the poly-GA microspot carrying Poly-CT-Rabbit IgG, confocal laser scanning, ex 568 / em 585
substance,measurement,setting,value
goat anti-mouse IgG (whole molecule) antibody conjugated yellow-green FLUOSPHERES,Yellow/Green Signal,[1],101
same,Yellow/Green Signal,[2],16.9
goat anti-rabbit IgG (whole molecule) antibody conjugated red FLUOSPHERES,Red Signal,[3],24
same,Red Signal,[4],99.8
